Test results from article PMC6114107, “Characterization and validation of Entamoeba histolytica pantothenate kinase as a novel anti-amebic drug target” (International Journal for Parasitology: Drugs and Drug …, 2018).

Tests used:
Format in all cases: biochemical, Entamoeba histolytica
recombinant EhPanK = assay: Regulation of EhPanK by CoA, acetyl CoA and malonyl CoA (double-reciprocal plots); settings: inhibitor 0, 0.5, 2 mM
From the text: PanK from other organisms was reported to be negatively regulated by allosteric inhibition with CoA, acetyl CoA, and malonyl CoA ([Calder et al., 1999]; [Takagi et al., 2010]; [Vallari et al., 1987]). […] The mechanisms of inhibition by acetyl CoA were not clear but seemed to be the mixed type with respect to ATP and pantothenate (Fig. 3).
Fig. 2 Effect of CoA, acetyl CoA, and malonyl CoA on the pantothenate kinase activities. Relative activities of EhPanK in the presence of various concentrations of inhibitors to those without inhibitors are shown. […] The assays were carried out three times independently, and the results are shown as means ± SEM of triplicates.
Fig. 3 Double-reciprocal plots of the recombinant EhPanK in the presence of CoA (A and B), malonyl CoA (C and D), or acetyl CoA (E and F). The enzymatic activities were determined with various concentrations of ATP and 0.2 mM pantothenate (A, C, and E) or various concentrations of pantothenate and 100 μM ATP (B, D, and F), in the presence of three concentrations of inhibitors (0, 0.5, and 2 mM). Data are shown in means ± SEM of triplicate analyses.

[1] = substrate: CC(C)(CO)[C@@H](O)C(=O)NCCC(=O)O; assay: Kinetic parameters of recombinant EhPanK for its substrates; settings: other: apparent Km at saturating concentration of the other substrate, 37 °C, pH 6, mean ± SEM
Experimental: (§1) PanK and DPCK activities in the cell lysate were measured with coupled assays using ADP Hunter™ Plus Assay kit (DiscoverX, US) according to the manufacturer's instructions. […] Kinetic data were estimated by curve fitting with the Michaelis–Menten equation using GraphPad Prism (GraphPad Software Inc., San Diego, USA). This experiment was repeated three times in triplicate with proteins isolated from two independent extractions, and kinetic values are presented as the means ± S.E. for three independent kinetic assays.
(§2) Table 1 summarizes the apparent Km, Vmax, and Kcat values for EhPanK using pantothenate and ATP as substrates.
(§3) Fig. S5. Optimum pH and temperature (A) and initial rate plots (B, C) of EhPanK. B) The velocity of EhPanK reaction at various pantothenate concentrations in the presence of 25, 50, or 100 μM ATP. C). The velocity of EhPanK reaction at various ATP concentrations in the presence of 8, 64, or 128 μM pantothenate. […] Assays for panes B and C were conducted at 37 °C at pH 6. Data are shown in mean ± SEM of three replicates.

[2] = substrate: Nc1ncnc2c1ncn2[C@@H]1O[C@H](COP(=O)(O)OP(=O)(O)OP(=O)(O)O)[C@@H](O)[C@H]1O; assay: as above; settings: other: apparent Km at saturating concentration of the other substrate, 37 °C, pH 6, mean ± SEM
Experimental: as §1, §2, §3

Molecule	Mechanism of inhibition with respect to ATP (recombinant EhPanK; various ATP, 0.2 mM pantothenate)	Mechanism of inhibition with respect to pantothenate (recombinant EhPanK; various pantothenate, 100 μM ATP)	Km [1] [µM]	Vmax [1] [µmol/min/mg]	kcat [1] [s⁻¹]	kcat/Km [1] [M⁻¹ s⁻¹]	Km [2] [µM]	Vmax [2] [µmol/min/mg]	kcat [2] [s⁻¹]	kcat/Km [2] [M⁻¹ s⁻¹]
CC(C)(COP(=O)(O)OP(=O)(O)OC[C@H]1O[C@@H](n2cnc3c(N)ncnc32)[C@H](O)[C@@H]1OP(=O)(O)O)[C@@H](O)C(=O)NCCC(=O)NCCS [CoA, Coenzyme A]	competitive	uncompetitive								
E. histolytica pantothenate kinase (Entamoeba histolytica HM-1:IMSS) (protein) MSQPSHSIPSKHSVLSNEDIEHDDHITHTFEQYEFTKTQSPLPLNGVRRRTAPLSADMGGTMTKIVFWIPGDTDIDLPKYVEPEESVMSGFDLYPDPVLKVTMNSKGENELCFMKFPTSQIPEFIHYAKTSKLKEIYGIGNLQILNVTGGGAYKFANLLKDEMDLEVRQQDEMRCLVLGVNFLLLCCQEKLCFRFVNKTKLYREVTPEIFPYLLVNVGSGVSILKVTAPEKYERVSGSLIGGGTFWGLCCLLTNYKSFDEMLQAAQYGQHQNVDLYVKDIYGRCYDSVGLAADMMASSFGKIQKVPCGEAKNHYSEADIAQGLMMMVCGSIAHLGFELTKLHHINRIFYTGGFVAHNPVVWEAITTMLTTWSSGSVDANFLEYDGYFGSIGALLLSEYEEELM			53.2 ± 7.1	2.79	2.11 ± 0.075	39700 ± 1330	41.4 ± 3.9	2.84	2.15 ± 0.153	51800 ± 3670
